Legend:
[1] = target: EphA4 (homologous receptor, screening at Integral Molecular) (UniProt P54764 20-986, limits assumed); experiment: screening at Integral Molecular
FcGR1 = target: T1, FcGR1 (human, UniProt P12314 16-374); experiment: flow cytometry, 6,000 human membrane proteins expressed on the surface of HEK293 cells
T1 construct: whole, on cells; An Fc receptor

[2] = target: T2, EphA4_ECD (aa 23-546), full ECD, displayed on yeast (human, UniProt P54764 23-546); experiment: yeast surface display, flow cytometry titration of AB-008873
T2 construct: also called EphA4 full ECD; not shown: Aga2 fusion partner followed by an internal HA tag; C-terminal Myc tag
T2 sequence (P54764 23-546): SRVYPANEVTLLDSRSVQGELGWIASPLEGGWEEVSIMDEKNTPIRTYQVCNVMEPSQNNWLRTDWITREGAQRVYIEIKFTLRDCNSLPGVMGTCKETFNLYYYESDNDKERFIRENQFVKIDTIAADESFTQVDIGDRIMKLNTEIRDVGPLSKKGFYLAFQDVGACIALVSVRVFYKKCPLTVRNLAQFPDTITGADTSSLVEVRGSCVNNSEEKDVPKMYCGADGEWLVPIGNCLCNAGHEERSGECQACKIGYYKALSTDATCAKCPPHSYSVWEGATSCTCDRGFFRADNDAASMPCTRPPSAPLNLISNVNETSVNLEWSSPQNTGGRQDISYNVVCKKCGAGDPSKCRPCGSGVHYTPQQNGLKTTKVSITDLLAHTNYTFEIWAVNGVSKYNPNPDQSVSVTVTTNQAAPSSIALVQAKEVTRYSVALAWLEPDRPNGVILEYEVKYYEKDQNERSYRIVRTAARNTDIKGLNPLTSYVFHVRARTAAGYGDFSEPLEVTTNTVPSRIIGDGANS
Protocol: Yeast cells were cultured in SDCAA (Teknova, S0543) and induced with SGCAA (Teknova, 50542). Cells were stained with pairs of primary and secondary antibodies. […] Chicken IgY anti-cMyc (Life technologies A21281) and Goat anti Chicken IgY FITC (Life technologies A11039) were used to assess expression levels. The analysis was run on the iQue3 flow cytometer. […] The FN2 domain of EphA2 alone is sufficient to mediate binding and expresses at high levels. […] FIG. 6. […] FN2 domain alone also has high relative expression. […] Swapping the FN1 domain from EphA4 into EphA2 enables binding of the epitope (diamond). Binding is lost when the FN2 domain from EphA4 is swapped into EphA2.

[3] = target: T3, mouse EphA2 on mouse tumor cells (CT26, EMT6, MC38, RENCA) (mouse, UniProt Q03145 26-977); experiment: flow cytometry, surface binding on CT26 cells (in vitro)
T3 construct: whole, on cells
T3 sequence (Q03145 26-977): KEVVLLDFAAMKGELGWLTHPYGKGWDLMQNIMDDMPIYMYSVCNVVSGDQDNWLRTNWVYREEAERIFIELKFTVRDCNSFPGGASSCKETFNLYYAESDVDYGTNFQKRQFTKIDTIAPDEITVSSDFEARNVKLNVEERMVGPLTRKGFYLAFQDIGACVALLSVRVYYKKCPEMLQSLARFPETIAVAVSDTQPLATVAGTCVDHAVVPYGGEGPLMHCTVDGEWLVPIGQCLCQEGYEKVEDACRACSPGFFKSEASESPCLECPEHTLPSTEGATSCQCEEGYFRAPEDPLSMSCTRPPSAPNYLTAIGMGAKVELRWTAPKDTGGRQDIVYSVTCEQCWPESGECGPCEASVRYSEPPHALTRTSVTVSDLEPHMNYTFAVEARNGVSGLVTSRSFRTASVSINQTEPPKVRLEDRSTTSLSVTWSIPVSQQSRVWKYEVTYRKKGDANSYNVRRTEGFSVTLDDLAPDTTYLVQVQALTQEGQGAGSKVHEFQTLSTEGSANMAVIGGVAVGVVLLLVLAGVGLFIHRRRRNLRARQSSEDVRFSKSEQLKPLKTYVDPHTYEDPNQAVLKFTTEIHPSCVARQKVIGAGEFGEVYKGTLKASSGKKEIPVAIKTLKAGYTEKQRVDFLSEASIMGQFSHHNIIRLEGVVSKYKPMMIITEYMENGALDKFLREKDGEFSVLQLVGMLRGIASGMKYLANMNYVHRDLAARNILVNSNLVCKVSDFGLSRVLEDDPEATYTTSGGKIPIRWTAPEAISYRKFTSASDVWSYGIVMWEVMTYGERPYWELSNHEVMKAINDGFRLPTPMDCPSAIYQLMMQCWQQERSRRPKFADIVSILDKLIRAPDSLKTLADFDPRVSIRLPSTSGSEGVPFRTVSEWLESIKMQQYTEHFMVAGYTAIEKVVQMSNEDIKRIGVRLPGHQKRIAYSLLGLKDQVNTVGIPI
Protocol: Surface binding of the antibodies to in vitro grown cell lines was assessed by flow cytometry. Tumor cells were detached from their culture plate using Versene and counted. Cells were staining in BSA-containing buffer with primary antibody for 30 minutes at 4° C. with shaking. Following, cells were washed and stained with secondary PE-labeled antibody for 30 minutes at 4° C. with shaking. Before analysis on an Intellicyt iQue3 scanner, cells were counterstained with DAPI. MedFI values from live, single cells was expressed as fold over isotype control.

EphA4 (homologous receptor, screening at Integral Molecular), sequence (P54764 20-986 limits assumed): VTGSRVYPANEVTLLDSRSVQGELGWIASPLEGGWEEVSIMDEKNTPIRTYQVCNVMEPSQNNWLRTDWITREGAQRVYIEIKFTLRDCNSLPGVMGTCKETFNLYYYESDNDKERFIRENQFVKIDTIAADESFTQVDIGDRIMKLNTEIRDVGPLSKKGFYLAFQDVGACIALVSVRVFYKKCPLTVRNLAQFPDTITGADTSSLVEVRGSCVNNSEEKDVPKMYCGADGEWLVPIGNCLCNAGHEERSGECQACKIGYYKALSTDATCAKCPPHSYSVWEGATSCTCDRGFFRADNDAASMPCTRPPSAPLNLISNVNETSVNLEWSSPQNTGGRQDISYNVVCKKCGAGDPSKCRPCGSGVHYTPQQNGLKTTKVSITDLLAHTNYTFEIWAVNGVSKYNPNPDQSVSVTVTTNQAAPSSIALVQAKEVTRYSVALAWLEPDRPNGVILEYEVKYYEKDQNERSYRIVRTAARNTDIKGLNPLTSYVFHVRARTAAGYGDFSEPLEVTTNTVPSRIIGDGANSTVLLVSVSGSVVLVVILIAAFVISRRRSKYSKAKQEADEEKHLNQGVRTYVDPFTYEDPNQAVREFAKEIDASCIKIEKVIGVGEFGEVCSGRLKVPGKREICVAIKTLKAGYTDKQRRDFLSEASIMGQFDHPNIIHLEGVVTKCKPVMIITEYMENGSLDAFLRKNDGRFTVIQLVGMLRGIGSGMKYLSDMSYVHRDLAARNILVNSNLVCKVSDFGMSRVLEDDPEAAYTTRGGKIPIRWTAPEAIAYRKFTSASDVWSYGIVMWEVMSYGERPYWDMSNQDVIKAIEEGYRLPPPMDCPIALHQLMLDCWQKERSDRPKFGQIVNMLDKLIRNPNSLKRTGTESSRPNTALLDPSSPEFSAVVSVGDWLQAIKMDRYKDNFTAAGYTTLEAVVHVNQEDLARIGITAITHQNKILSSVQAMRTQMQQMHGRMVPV
T1 sequence (P12314 16-374): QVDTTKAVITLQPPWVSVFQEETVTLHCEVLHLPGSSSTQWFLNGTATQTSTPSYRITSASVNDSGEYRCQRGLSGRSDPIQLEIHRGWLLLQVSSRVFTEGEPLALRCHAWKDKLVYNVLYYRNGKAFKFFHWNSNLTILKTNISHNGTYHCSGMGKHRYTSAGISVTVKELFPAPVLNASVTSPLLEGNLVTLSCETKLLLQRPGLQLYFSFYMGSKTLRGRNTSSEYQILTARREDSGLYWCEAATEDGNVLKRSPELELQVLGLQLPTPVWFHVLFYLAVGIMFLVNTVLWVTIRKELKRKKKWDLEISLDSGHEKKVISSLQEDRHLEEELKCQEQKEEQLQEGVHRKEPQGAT

B1: AB-008873 (mouse IgG2a format) (antibody)
heavy: QVQLQQWGAGLLKPSETLSLTCAVYGGSFSDYYWSWIRQPPGKGLEWIGEVNHRGSINYNNYNPSLKSRVTISVDPSKNQFSLKLTSVTAADTAVYYCAKPLRPHCTNGVCYSGDAFDIWGQGTMVTVASAKTTAPSVYPLAPVCGDTTGSSVTLGCLVKGYFPEPVTLTWNSGSLSSGVHTFPAVLQSDLYTLSSSVTVTSSTWPSQSITCNVAHPASSTKVDKKIEPRGPTIKPCPPCKCPAPNLLGGPSVFIFPPKIKDVLMISLSPIVTCVVVDVSEDDPDVQISWFVNNVEVHTAQTQTHREDYNSTLRVVSALPIQHQDWMSGKEFKCKVNNKDLPAPIERTISKPKGSVRAPQVYVLPPPEEEMTKKQVTLTCMVTDFMPEDIYVEWTNNGKTELNYKNTEPVLDSDGSYFMYSKLRVEKKNWVERNSYSCSVVHEGLHNHHTTKSFSRTPG
light: SYVLTQPPSVSVAPGQTARITCGGNNIGSKNVHWYQQKPGQAPVLVVYDDSDRPSGIPEQFSGSNSGNTATLTISRVEAGDEADYYCQVWDSSSDHLVFGGGTKLTVLGQPKSSPSVTLFPPSSEELETNKATLVCTITDFYPGVVTVDWKVDGTPVTQGMETTQPSKQSNNKYMASSYLTLTARAWERHSSYSCQVTHEGHTVEKSLSRADCS
B1: no binding [1]; binds (FcGR1); no binding (tested: about 300 nM) [2]. The “fold over isotype control (MedFI)” value [3] was 16 fold.
